Experiment: soluble on expression in E. coli; label from the status in PepcDB or PDB records

Sequence | soluble on expression in E. coli
MGHHHHHHSHMNNRTRLALIICNTEFDHLPPRNGADFDITGMKELLEGLDYSVDVEENLTARDMESALRAFATRPEHKSSDSTFLVLMSHGILEGICGTVHDEKKPDVLLYDTIFQIFNNRNCLSLKDKPKVIIVQACRGANRGELWVRDSPASLEVASSQSSENLEEDAVYKTHVEKDFIAFCSSTPHNVSWRDSTMGSIFITQLITCFQKYSWCCHLEEVFRKVQQSFETPRAKAQMPTIERLSMTRYFYLFPGN | soluble
MSLDFREVIEQRYHQLLSRYIAELTETSLYQAQKFSRKTIEHQIPPEEIISIHRKVLKELYPSLPEDVFHSLDFLIEVMIGYGMAYQEHQTLRGIQQEIKSEIEIAANVQQTLLGTKVPQEEALDIGAISVPAKQMSGDYYHFVKDKESINIAIADVIGKGIPAALCMSMIKYAMDSLPETGIHPSQVLKNLNRVVEQNVDASMFITMFYANYNMDKHQFTYASAGHEPGFYYSQKDNTFYDLEAKGLVLGISQDYDYKQFDQHLEKGDMIVLFSDGVTECRTENGFLERPDLQKLIEEHMCSSAQEMVKNIYDSLLKLQDFQLHDDFTLIVLRRKVEGGSHHHHHH | soluble
MPMLDMIVSRVITLLQGRESRSLRVTQAELAAGLSKTVYLHNAQLILPLPDLAFIQSLVAYDHHHPAVSTVLEAWAYGVRLHLQIHQQLLTALPLRELRRLPVTLTDHMSTPVKLAAAAGLSYASVIHWHDCWVLLEKQTLITALAREVMERQNIKLIWQE | not soluble
MGHHHHHHSHVGFDTGFMQFFRVREKSMTMAELLIGSRKTYGLNLIGGVRRDILKEQRLQTLKLVREMRADVSELVEMLLATPNMEQRTQGIGILDRQIARDLRFDHPYADYGNIPKTLFTFTGGDVFSRVMVRVKETFDSLAMLEFALDNMPDTPLLTEGFSYKPHAFALGFVEAPRGEDVHWSMLGDNQKLFRWRCRAATYANWPVLRYMLRGNTVSDAPLIIGSLDPCYSCTDR | not soluble
MAGTTTYELIDYLEGKDILVVSNGLSHIDTLIQKNIKCYVIGGNIKISTKAITGCDALMCLSKFRFDKCFIGANGVHHTYGLTTPDTEEAILKECAINNSRKAYVLADDSKFGEISTIKFSDINKCVIITNEKPKDNTYDKKTDIKVVDILEHHHHHH | not soluble
MSLAIRVVCISDTHDLKVDIPRGDILIHAGDLTDGGTVSDIQKQLDWLKEQPHPIKVVVAGNHDSWFDQKSRPEEDARSGAKPDMDGLIYLESGLTVQKVKGRTVNIFGVPDIPEIGPKEFAFQYATDNHPWLSKVPPQTDILVTHCPPKHHLDLGLGDSNLLREVWRVKPRLHVFGHVHCAYGKESVFFDNFQQTYERIMSRPRRGPILDFIPNEAWLDYLRFLAQGIHAVAWKWIMSGPGSNNGSLMVNAAQMKGNSGKVKSRAVVVEIEGHHHHHH | soluble
MAMSLREELWLWKKEKLAEHVANNLRKKKHEVWIARDREEILERVKELIPEGATVSAGGSLTLADTGVIELLRSGRYNFLDRAAAKTREEVEEIYRKSFWADYYFTSVNAITEDGKLVFLDGNGNRVAAVVFGPKNVVVIASVNKVVKDVEEARERLRYISPMNSKRLNLETPCTKTGFCADCSSPQRICDYFLVVESGVRQPGRFKVILTLEDFGLLEHHHHHH | not soluble
GPGSMAKHYKAIFAMSYEAELYAHLQASQRFNAGADAAVVLHADSDEAMRRHLGISIDPINGTNCCVGGVWQAPMTLVGIALDGVPIAGVMNRIFDYPLTCTYGPAATEPQEKACVPGLAVVLNTPTPASPFVVFDGGLVPAPGQMEQQLECTCETPLAVCRSSTTKEVFLQRLLTQLEPCNAVYSRGAGYKQYHLLKKMLTGRHVAHEAITPADIFVCPPGTIEKWDCCVVHAFLYALGGEIFDQNGVPIRYPLVGTYGAATTSLSEIAALTDGLVAVTPYAMHEVARRLGWTLTLAP | not soluble
MKCNMCPRACNVDRNVNTGFCGMTNDIYAARAALHMWEEPCISGEHGSGAVFFSGCTLRCIFCQNSEIAAAQVGKKITVERLSDIFLELQDKCANNINLVTATHFVPQVAEALVKAKNKGLVIPVVYNSSAYENVSTLNMLDGLVDVYLPDMKYIDSRLSAEYSKAPDYADVAKAAIHEMVRQTGKLEFFIEDDELVKSGRVEAGIMKKGVIVRHLVLPGTTKDSKAVIKYLIDTYGDDIYISIMSQYTPFDRLKKHPLLSRKVTRKEYNSVVDYAIDCGINNGFIQEGDVAEESFIPEFDYEGI | not soluble
MTIEGGEQEVNVSSGGAWQSSIHCDWMTLSPSSGGIGITKVRIKVKKNTSGLPRNGRIAIISGKEEKGITVMQSSIEGEEDYLRLLNLTIDGVTTAVDYVNNSYYLPIDMDAVQPAKVKVEFGGIGVDFIKIGDKKIKSGENIALSLNPGQNIEMEAGNNTIDKIRSCRLIVTGVPVIEISAPEGIEDENKRPCDIVLTDPKRRTNNSVLRFESYAGIEFRGAGALRYAKKSFSFKLKNRQTNENQDAKLLGLREDQSWILDAMWLDCSKMRNRVCFDLWNDFNTLYYSNTEPEAVNATHGYPVEMILDGAYHGLYILSDRIDRKQLKMKKKGGYLYKGKEWTDECKLQGINTPYSNSKQAWQGFESDYPDEVGEIEFKYLSDLIQFFAAASKEEFAAQYEERLDVSSLIDYFIFINLLSAYDNTGRNVFWGIYNVNLTLLPKFIIQPWDLDGTLGRTWDAIKLDPEKGLGFDNGLILRNDAGSKYFRPFERIMNENPNNIKRRIYERLMAVKDNVLSPANLASKVDYYKRQIVESGALERDRQRWTGYSMYGYANPEEEAEYIKSWYIARLKYLETIFNNF | not soluble
MQRKLATWAATDPSLRIQRLLRLITQPEWLAEAARITLSSKGAHTPGVDGVNKTMLQARLAVELQILRDELLSGHYQPLPARRVYIPKSNGKLRPLGIPALRDRIVQRAMLMAMEPIWESDFHTLSYGFRPERSVHHAIRTVKLQLTDCGETRGRWVIEGDLSSYFDTVHHRLLMKAVRRRISDARFMTLLWKTIKAGHIDVGLFRAASEGVPQGGVISPLLSNIMLNEFDQYLHERYLSGKARKDRWYWNNSIQRGRSTAVRENWQWKPAVAYCRYADDFVLIVKGTKAQVEAIREECRGVLEGSLKLRLNMDKTKIPHVNDGFIFLGHRLIRKRSRYGEMRVVSTIPQEKARNFAASLTALLWKVRISGEILLGLEHHHHHH | not soluble
MEALVVVHKVASEGGRRPKTTVSDESGSHSREKGKSFQVKDSPENNYATGKVDSLERSHFSSSYNQERRQSEEQRR | soluble
MVAIVDVGITKFGKRKENIFDLVKEVTEKLLKYDIDYVIVSNSYSGEFNQTSGLSSLITTYLNLDYVPSLRVDNTSGSGGSAILVAKSLLESKEANTVLVVGVEKMSEKKTREVTKIISSLLPFEERIASLPSLASISAIEYMRKFNAPRESIAQVAVKNHYNGSLNPFAHIQKRVTLEEVLNSPVISEPLRLYEYTPISDGAAAVVMVRNEDALSYTSKPVYIKGIGSSNYTAYVSEKEDFVTLPAVVEASRKAFKKAKVERIDFAELHDMATILEIIQSEDIGLFKKGEGWKAVMEGLTSLDGEIPINPSGGLNSKGHPIGASGVAQAVEAFSQIRNEAGNRQVKNARVGLSLSMAGYGNSATVIIYGDEP | soluble
MGRVLDRIEVVAEEIRGQAVQSEADCRLTDAAAGLLRDSGAIRLLQPRLYGGYEVHPREFAETVMGVAALDGASGWVTGIVGVHPWELAFADPQVQEEIWGEDNDTWMASPYAPMGVATPVDGGYVLKGRWSFSSGTDHCQWAFLGAMVGDGEGGIATPSSLHVILPRTDYQIVEDTWDVIGLRGTGSKDLIVDGAFVPGYRTLNAAKVMDGRAQKEAGRPEPLFNMPYSCMFPLGITAAVIGITEGALACHIAVQKDRVAITGQKIKEDPYVLSAIGESAAEINASRVSLIETADRFYDKVDAGKEITFEERAIGRRTQIAAAWRAVRAADEIFARAGGGALHYKTPMQRFWRDAHAGLAHAVHVPGPTNHASALTQLGGEPQGMMRAMI | soluble
MGSDKIHHHHHHMSSIFSLEGIKALGPDELREIQRGGLPVVIHFGDAGDDFLAYVSDHATEWLGTDAIRTVDARRFMEDKEWKAPMLTSEVLPKTIIVDPARWGDSFADKVAALDMTAFYSSNPVLLDYNDAFEVVFLFSTFYHHTMVSVTDFCNLRCRGCSFHGDDSRYDFAASRGKTERQELKEEDYYLFLDQRKPGDDLLFCGTGELFVSKKAMPYIREAIRRGLHVRILTNGMLVDDKVARELVELGVGAVLFSIDGHTKEIVESIRLGADYDRILANLRNLMRVRDEAGSGMIIGVQSGWFDEVKTRKDEILEFWKEFGIDTFSFFAEQVGWFQCIPMHEDKVMPVKTHACFNSLITPVLMTNGYVAPCTGNYQAEWSSLSSSWMKHISEAPFDEIIRYYRKMRTDPASPYRQRCAMCIGRLSTYVNSEYVSAYAEGYRFSERKSDKEAAFVKFSPQDEKTGFTLKKLWNRLLRR | not soluble
MGSDKIHHHHHHMTGRVVTVFGGSGSIGRQLVALLADQGARVRVAVRDTEKAHFLKPLGQLGQIAPISASVSDAASVKRAVEGADQVVNLVGILAESGRRTFQAVHVDGAATVARASAEAGVDALIHMSALGADEASDANYSKTKALGEKAVREAFPAATILRPSVVFGPDDGFFNLFAGLQRLSPVLPYFTRDGFRRGGSGVCGIDLAGSGGPKFQPVYVGDVARAMIAILDTPALRGKTYELGGPRVYSMKEIMDLVVAVTRRRTLVVPLPFWVARLQGRLLEKLPNPPLTSDQVRLMEVDNVCSGALPGLGDLGIEPEAAEAILPTYLSRFRGLDRHMILRGDGRPPKV | not soluble
MNNKKINFGCCNWTRDAMKWRQRFEAADVTWVSRTNNGPADLLAKHRLPDNCSFQYHYYVPPFIVSALHCNHS | soluble
VGLGNLKTYGGLRQGSQSYNIDRLKKYLYYGDGTYDDLVNTLLNEAMNDQLESFASFYRGKKLYELPRGWPEIPAKRQR | not soluble
MAITDILSAKDIESALSSCQAADSFNYKSFFSTVGLSSKTPDQIKKVFGILDQDKSGFIEEEELQLFLKNFSSSARVLTSAETKAFLAAGDTDGDGKIGVEEFQSLVKA | soluble
MAHHHHHHMEFLVADAERMYTVNGRLQHLSYWSYKILARSFLESYQNPPLLNSNRAAQNFSKGSGYVDFCTWHRYSEFEWLAAQVELEFPGMLFPPIPSKETDGTVDKFTELLTSVKENNSTTRENPLVKKRMRHLQLTFNAIAQLHELHESPLLKAFVTLDELSWCAFREEREKKMKTSILTIFKAKGLSIIAKLRSFRESSNHDYTLDSPLDSVATRQSDLGELLNTCFAQVEYINKYCISEWRHWSDVNKLRGSIQGSPMPWTACYGGHHVQHSKHPGLEGVVREINNDAAVVEWNGQGGKLSKVPLDELNYPSSGISDPAIFALQELASQVESYFMYLSRSSGVAVLRDVEDLLWFLSSYANRCVRVIRRFREMRSEVRYLTRVVEKKASVEQFEQLERLKQILSKGTSRFMEQYNNFYRCFMRNSLMEVAHKFGRVITVIMSDDQWNERLSVAKTMLTLSLPLLPEEREEIFAEDASKRDSPPMKQVNGLEG | soluble
MGSDKIHHHHHHMYSHPTAIQTMSDGTIKQVNPFSGTEVWTVPGRGHRPLSTSQGNITPITPSDHSNTCAFCSDRYLDTPPEKARIVRDDDGWTILRGVLPDRLHDSVPAFRRVSNLFEIVSYDYWRNNYGFSMDLETTDWMQSYISTEKGREHVLATVRTKLQAAGIQDMPDDATLLPQGEAFFGGGHDLIIGQRHFVPDATQSDQLASAGTLSPDEHFAFIFFTVDALREAYQRNRYAPYVAVFQNWLKPAGASFDHLHKQLVAIDERGVHGETEIAKLRNYPNMYNEWAVDYAGQRNLIIAENDHAVCFAGFGHRYPTLEVFSRSATPEPWLQTNEEIKAMSDLIHACHAAAGPHVPCNEEWHHKPIDLDIAMPWRVMIKWRVSTLAGFEGSTKVYLNTLSPWDVRDRVVPRLYELRDSGAIDGSIRIATECSVRRNSLLYNKNLNM | not soluble
